Where two headings read alike, the source gives them in different places.
How the values were obtained:
[1] = target: human CTLA4 expressed on Jurkat T cells (human, UniProt P16410 36-223); assay: cell-based or functional assay
[2] = target: T1, human PD1 expressed on a cell surface (human, UniProt Q15116 25-288); assay: cell-based or functional assay
[3] = target: T1, human PD1 expressed on a cell surface; assay: flow cytometry on OKT3-activated human T cells, CD4+ cells
Description: (§1) The following experiment tested whether the selected anti-hPD1 antibodies can bind to native PD1 expressed on the surface of activated T cells. Human PBMCs were pre-activated with OKT3 (an anti-CD3 antibody) at a concentration of 1 μg/ml. After three days, the PBMCs, which were mostly activated T cells at this time, were distributed into a 96 well microtiter plate using 0.1×10⁶ cells/well. […] The antibody bound to CD4⁺ T cells and CD4⁻ T cells (which were predominately CD8⁺ T cells) was detected using anti-hlgG-FITC and an anti-CD4 antibody labeled with allophycocyanin (anti-CD4-APC).
(§2) The samples were analyzed by flow cytometry (FACScalibur, BD), and binding was reported as an MFI. EC₅₀'s for binding were calculated using GraphPad Prism software.

[4] = target: T1, human PD1 expressed on a cell surface; assay: cell-based or functional assay; remark: listed apart in the source
[5] = target: T1, human PD1 expressed on a cell surface; assay: flow cytometry on OKT3-activated human T cells, CD4- cells
Description: as §1, §2

[6] = target: T2, soluble, biotinylated PD1 protein containing only the extracellular region (human, UniProt Q15116 25-170, biotinylated in vivo (site not stated)); assay: …; inhibition of GST-hPDL1 binding to biotinylated hPD1
T2 construct: extracellular domain; also called biotinylated hPD1
T2 sequence (Q15116 25-170): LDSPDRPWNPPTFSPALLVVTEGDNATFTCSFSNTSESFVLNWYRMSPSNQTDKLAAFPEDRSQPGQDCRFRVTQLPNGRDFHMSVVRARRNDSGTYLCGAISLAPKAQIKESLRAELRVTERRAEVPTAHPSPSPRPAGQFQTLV
Description: Finally, 10 μL of streptavidin donor beads (which can bind the biotinylated hPD1) were added to bring the final concentration of donor beads to 16 μg/mL, and the plates were incubated in the dark at RT for one hour. […] An antibody that inhibits this interaction or binding will decrease the signal, since the inhibiting antibody prevents physical proximity of the donor and acceptor beads.
Plates were read in an EnVision 2103 Multilabel Reader (PerkinElmer) using illumination at a wavelength of 680 nm and reading emission at a wavelength of about […]. The results were plotted and IC₅₀ values were calculated using GraphPad Prism software.

[7] = target: T1, human PD1 expressed on a cell surface; assay: cell-based or functional assay; remark: listed apart in the source
[8] = target: T3, recombinant human (rhu) PD1 (extracellular domain only) (human, UniProt Q15116 25-170); assay: SPR (Biacore 3000), antibody captured by anti-human IgG, PD1 as analyte
T3 construct: extracellular domain; also called recombinant human PD1
T3 sequence (Q15116 25-170): as above
Description: (§3) Biosensor analysis was conducted at 25° C. in an HBS-EP buffer (10 mM HEPES, 150 mM NaCl, 3 mM EDTA, 0.005% polysorbate 20, 0.1% bovine serum albumin, pH 7.4) using a Biacore 3000 optical biosensor equipped with a CM5 sensor chip according to the manufacturer's general protocol. The auto sampler was maintained at ambient temperature. […] About 8000 resonance units (RU) of this antibody was immobilized on these chips. Flow cell 4 was used to analyze captured anti-hPD1 antibodies (about 100 to 200 RU were captured on flow cell 4), while flow cell 3 was used as the reference flow cell. Both analytes, recombinant human PD1 and recombinant cynomolgus PD1, were prepared in five concentrations for each antibody tested. The analyte concentrations tested ranged from 1.2 to 300 nM. All analyte dilutions were prepared in HPS-EP buffer. Each of the five analyte sample concentrations were run in duplicate and in a mixed order, as a means of assessing the reproducibility of binding and mitigating systematic bias to the order of injection. Multiple blank (running buffer) injections also were run and used to assess and subtract system artifacts. The association phase and dissociation phase for all analyte concentrations were monitored for 300 seconds and 1500 seconds, respectively, at a flow rate of 50 μL/min. Between antibody samples the surface of the flow cell was regenerated with 10 mM glycine, pH 1.5 for 30 seconds at a flow rate of 50 μL/min.
(§4) The data was aligned, double referenced, and fit using SCRUBBER 2™ software (BioLogic Software, Pty, Australia), which is a Surface Plasmon Resonance (SPR) data processing and non-linear least squares regression fitting program.

[9] = target: T4, extracellular domain of a recombinant cynomolgus (rcyno) PD1 (cynomolgus monkey, UniProt B0LAJ3 25-170); assay: as above
T4 construct: also called recombinant cynomolgus PD1
T4 sequence (B0LAJ3 entry or part of it limits assumed): as the sequence (Q15116 25-170) above, with D2E, P10A, V19L, T35A, Q75R, T144A counted along it
Description: as §3, §4

[10] = target: T1, human PD1 expressed on a cell surface; assay: cell-based or functional assay; remark: listed apart in the source

T1 sequence (Q15116 25-288): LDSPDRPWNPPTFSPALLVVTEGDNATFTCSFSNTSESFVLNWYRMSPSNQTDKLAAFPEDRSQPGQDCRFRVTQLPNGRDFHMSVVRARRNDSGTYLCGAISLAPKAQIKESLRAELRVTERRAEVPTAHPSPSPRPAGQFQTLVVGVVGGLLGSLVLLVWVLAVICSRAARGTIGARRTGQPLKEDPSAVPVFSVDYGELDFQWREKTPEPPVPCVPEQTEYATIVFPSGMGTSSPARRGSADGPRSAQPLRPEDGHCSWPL
Chain of human CTLA4 expressed on Jurkat T cells (P16410 36-223): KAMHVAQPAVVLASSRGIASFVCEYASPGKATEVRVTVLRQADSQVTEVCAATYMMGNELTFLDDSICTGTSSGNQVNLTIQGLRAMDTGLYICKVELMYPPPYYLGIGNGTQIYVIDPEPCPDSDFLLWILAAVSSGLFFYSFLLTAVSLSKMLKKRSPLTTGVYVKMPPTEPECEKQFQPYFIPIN

Binder	IC50, luciferase reporter assay (Jurkat cells with CTLA4 plus Raji cells with hCD80 and hCD86) [1] [nM]	IC50, luciferase (RLU), PD1 dual cell reporter assay (Jurkat cells with hPD1 plus CHO-K1 cells with hPDL1) [2] [nM]	EC50 [3] [nM]	IC50, luciferase reporter assay (Jurkat cells with hPD1 plus CHO cells with hPDL1) [4] [nM]	EC50 [5] [nM]	IC50 [6] [nM]	EC50 for CD4+ T cell proliferation (pM), mixed lymphocyte reaction [7] [pM]	EC50 for CD8+ T cell proliferation (pM), mixed lymphocyte reaction [7] [pM]	EC50 for IFN gamma production (pM), mixed lymphocyte reaction [7] [pM]	Kd [8] [nM]	koff [8] [s⁻¹]	kon [8] [M⁻¹ s⁻¹]	Kd [9] [nM]	koff [9] [s⁻¹]	kon [9] [M⁻¹ s⁻¹]	IC50, luciferase reporter assay (Jurkat cells with hPD1 plus CHO cells with hPDL1) [10] [nM]	IC50, luciferase reporter assay (Jurkat cells with hPD1 plus CHO cells with hPDL1); tested as the mixture Altered anti-CTLA4 11F4 and altered anti-PD1 #1 made in one cell line [4] [nM]	IC50, luciferase reporter assay (Jurkat cells with hPD1 plus CHO cells with hPDL1); tested as the mixture Altered anti-CTLA4 10D4 and altered anti-PD1 #1 made in one cell line [10] [nM]
altered anti-hCTLA4 10D4 (antibody, human IgG1, kappa, V domains shown) VH: QVQLVESGGGVVEPGRSLRLSCTASGFTFSSYGMHWVRQAPGKRLEWVAVIWYHPSKKDYADSAKGRFTISRDNSKNTLYLQMNSLRAEDTAVYYCARAGLLGYFDYWGDGTLVTVSS VL: EIVLTQSPGTLSLSPGERATLSCRASQSVTSYLAWYQQKPGQRPRPLIYGVSSRATGIPDRFSGSGSGTDFTLTISRLEPEDFAVYYCQQYGRYPFTFGDGTKVDIKR	3.75																	
anti-hPD1 antibody #1 (antibody, V domains shown, also called Anti-hPD1 #1; Anti-PD1 #1) VH: QVQLVQSGAEVKKPGASVKVSCKASGYTFTNYWIHWVRQAPGQGLEWMGEIDPYDSYTNYNQKFKGRVTMTVDKSTSTVYMELSSLRSEDTAVYYCARPGFTYGGMDFWGQGTLVTVSS VL: DIQMTQSPSSLSASVGDRVTITCKSSQSLFNSGNQKNYLAWYQQKPGKVPKLLIYGASTRDSGVPYRFSGSGSGTDFTLTISSLQPEDVATYYCQNDHYYPYTFGGGTKVEIKR		1.18	0.918	2.5	1.37	0.197	135	323	890	2.18	0.000133	60900	5.06	0.000597	118000	2.49		
anti-hPD1 antibody #10 (antibody, human IgG4, V domains shown, also called Anti-hPD1 #10; Anti-PD1 #10) VH: QVQLVQSGAEVKKPGASVKVSCKASGYTFTSYWMHWVRQAPGQGLEWMGEIDPFDSYTNYNQKFKGRVTMTIDKSTNTVYMELSSLGSEDTAVYYCARPGYTYGGMDFWGQGTLVTVSS VL: DIVMTQSPDSLAVSLGERATINCRSSQSLFISGNQKNYLAWYQQKPGQPPKLLIYGASTRDSGVPDRFSGSGSGTDFTLTISSLQAEDVAVYYCQNNHYYPYTFGGGTKVEIK		2.69	1.07		1.6	0.279	234	839	2210	0.917	7.15e-05	78000						
altered anti-hPD1 antibody #1 (antibody, human IgG4 S228P, kappa, V domains shown) VH: QVQLVQSGAEVKKPGASVKVSCKASGYTFTNYWIHWVRQAPGQDLEWMGEIDPYDSYTNYNQKFKGRVTMTVDKSTSTVYMELSSLRSEDTAVYYCARPGFTYGGMDFWGRGTLVTVSS VL: DIQMTQSPSSLSASVGDRVTITCKSSQSLFNSGNQKNYLAWYQQKPGKDPKLLIYGASTRDSGVPYRFSGSGSGTDFTLTISSLQPEDVATYYCQNDHYYPYTFGRGTKVEIKR				2.67												2.65	3.34	3.8
anti-hPD1 antibody #3 (antibody, human IgG4, V domains shown, also called Anti-hPD1 #3; Anti-PD1 #3) VH: QVQLVQSGAEVKKPGASVKVSCKASSYTFTNYWMHWVRQAPGQGLEWMGEIDPYDSYTNYNQKFKGRVTMTIDTSTSTVYMELSSLTSEDTAVYYCARPGFTYGGMDFWGQGTLVTVSS VL: DIQMTQSPSSLSASVGDRVTITCKSSQSLFNSGNQKNYLAWYQQKPGKVPKLLIYGASTRESGVPARFSGSGSGTDFTLTISSLQAEDVATYYCQNDHYYPYTFGGGTKVEIK		2.37	0.536		0.69	0.305	365	3670	2220	5.16	0.000348	67400						
anti-hPD1 antibody #7 (antibody, human IgG4, V domains shown, also called Anti-hPD1 #7; Anti-PD1 #7) VH: QVQLVQSGAEVKKPGASVKVSCKASGYTFTNYWIHWVRQAPGQGLEWMGEIDPYDSYTNYNQKFKGRVTMTIDKSTNTVYMELSSLRSEDTAVYYCARPGLTYGGMDFWGQGTLVTVSS VL: DIVMTQSPDSLAVSLGERATINCRSSQSLFISGNQKNYLAWYQQKPGQPPKLLIYGASTRESGVPDRFSGSGSGTDFTLTISSLQAEDVAVYYCQNNHYYPYTFGGGTKVEIK		2.39	0.439		0.569	0.307	165	1520	1460	0.297	3.54e-05	119000	0.4	5.79e-05	145000			
anti-hPD1 antibody #4 (antibody, human IgG4, V domains shown, also called Anti-hPD1 #4; Anti-PD1 #4) VH: QVQLVQSGAEVKKPGASVKVSCKASGYTFTNYWMHWVRQAPGQGLEWMGEIDPFDSYTNYNQKFKGRVTMTRDTSTSTVYMELSSLTSEDTAVYYCARPGYTYGGMDFWGQGTLVTVSS VL: DIQMTQSPSSLSASVGDRVTITCKSSQSLLNSGNQKNYLAWYQQKPGKPPKLLIYGASTRDSGVPSRFSGSGSGTDFTLTISSLQPEDVATYYCQNDHYYPYTFGGGTKVEIK		2.03	0.672		0.885	0.314	391	534	1540	4.62	0.000279	60400						

Reference: patent publication US20190276542A1 (QILU PUGET SOUND BIOTHERAPEUTICS, published 2019)
